Experimental data taken from US20240301070A1, “IMPROVING ANTIBODY TOLERABILITY ASSOCIATED WITH INTRAVENOUS ADMINISTRATION” (BIOINVENT INTERNATIONAL AB, priority 2020, published 2024).
“Also recorded” adds a separate entry of the source.

Key:
[1] = target: mouse CD32B (FcγRIIB) (mouse) (UniProt P08101); assay: receptor saturation at 10 ug/ml serum concentration of AT-130-2; separate experiments not shown
[2] = system: human subjects with non-hodgkins B-cell lymphoma; assay: Cytokine analysis of plasma/serum of human subjects (MSD); format: in vivo
Procedure: For cytokine concentrations, frozen plasma samples were thawed and diluted ×2 and ×8. Two parallel set of cytokines were analyzed, the proinflammatory assay with IL-6, IL-8, TNF-α, IFN-γ, IL-10, IL-2 and IL-4 (MesoScale Discovery (MSD) #K15049), and the chemokine assay with MIP-1β, IL-1β, IL-23, IL-12p 70, TARC and VEGF (MSD #K15067). The assays followed the manufacturer's protocol as outlined briefly: 50 μL of sample and calibration standard were added to the appropriate MSD plates and incubated. Following washing, 25 µL of SULFO-TAG detection antibody mixture were added to each well of the corresponding plate. The plates were analyzed on a QuickPlex SQ120 Reader instrument (MSD) and cytokine concentration was calculated using the MSD software (Discovery Workbench, 2013; version LSR-4-0-12).

[3] = system: human subjects with non-hodgkins B-cell lymphoma; assay: ALT/AST in clinical studies with BI-1206
Text: (§1) Platelet counts, ALT concentrations and IRR grading were obtained from clinical sites where anayzed and reported according local standard procedures.

[4] = system: human subjects with non-hodgkins B-cell lymphoma; assay: Platelet counts in clinical studies with BI-1206; format: in vivo
Text: as §1

FcgRIIb = target: T1, FcgRIIb (Homo sapiens, UniProt P31994); assay: FcgRIIb receptor occupancy on peripheral B cells (flow cytometry); format: in vivo; conditions: 100 mg BI-1206
T1 construct: FcgRIIb receptor occupancy on peripheral B cells (A) and peripheral B cell levels (B) in human subjects; endogenous in cells; host or cells: peripheral CD19+ B cells in whole blood of human subjects (same method also used on hFcgRIIB transgenic mice)
T1 sequence (P31994 43-310): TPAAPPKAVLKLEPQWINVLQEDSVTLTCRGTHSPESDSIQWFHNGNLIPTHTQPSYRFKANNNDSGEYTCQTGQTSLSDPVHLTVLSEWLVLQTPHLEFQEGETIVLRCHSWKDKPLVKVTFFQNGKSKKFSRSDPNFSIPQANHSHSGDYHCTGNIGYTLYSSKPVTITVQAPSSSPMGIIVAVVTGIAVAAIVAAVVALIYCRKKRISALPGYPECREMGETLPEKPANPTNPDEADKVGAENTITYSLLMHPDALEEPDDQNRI
Procedure: The FcgRIIb receptor occupancy in humans and hFcgRIIb transgenic mice was analyzed using flow cytometry. Whole blood from was incubated with either 005-C05 antibody (targeting hFcgRIIb) or anti-hCD32-AF647 antibody. 005-C05 binds the same epitope as BI-1206 but with much lower affinity. In the analysis, the Geo Mean of respectively mAb (005-C05 and anti-human CD32) was acquired on the CD19+ cell population. Receptor occupancy (RO) was calculated using the following equations: RO (%)=((Total Receptors-Normalized Free Receptors)*100)/Total Receptors. All replicates of 005-C05 geo mean of CD19+ cells were then multiplied by the Normalization factor.

[5] = system: human subjects with non-hodgkins B-cell lymphoma; assay: IRR grading in clinical studies with BI-1206; format: in vivo
Text: The IRR that may be prevented or mitigated as described herein and/or that may be predicted with the method described herein may be any IRR. The adverse event denoted “Infusion related reaction” in the CTCAE version 5.0 is used for disorders characterized by adverse reaction to the infusion of pharmacological or biological substances; belonging to the group of “Injury, poisoning and procedural complications”.

peripheral B lymphocytes = assay: Peripheral B lymphocyte depletion in human subjects; format: in vivo; conditions: 100 mg BI-1206
wildtype C57/BL6 mice [6] = assay: Macroscopic IRR scoring (0-2) of mice after antibody injection; format: in vivo, mouse
Procedure: Six to eight weeks-old (17-20 g) female C57/BL6 and Balb C mice were obtained from Taconic or Janvier. Mice were injected i.v with mouse anti-CD32B AT-130-2 IgG2a either as a bulk dose of 200 ug/mouse or as a split-dose with 8 ug/mouse followed by 200 ug/mouse. […]
Mice were monitored post injection with regards to changes in behavior and macroscopic symptoms such as isolation, mobility, and fur condition. Macroscopic IRRs scoring system of 0-2 was set up based on the observations.
These premedications were given i.p 1h prior to injection i.v of mouse anti-CD32B AT-130-2 IgG2a as a bulk dose of 200 ug/mouse. […]
Mice were monitored post injection with regard to changes in behavior and macroscopic symptoms such as isolation, mobility, and fur condition. Macroscopic IRRs scoring system of 0-2 was set up based on the observations: […]

wildtype C57/BL6 mice [7] = assay: Platelet count in fresh mouse blood (Vetscan); format: in vivo; conditions: 40 mg/kg, 1 hour only, 10 mg/kg AT-130-2 IgG2a i.v.
Procedure: Blood samples were collected from vena saphena 20 min post injection of bulk dose of anti-CD32B for instant blood count analysis. For liver enzyme and cytokine analysis, the mice were bled from the aorta under isoflurane anesthesia just prior to sacrifice. Samples for liver enzymes and cytokines were collected 1h and respectively 3h after bulk dose.
Platelet counts were analyzed in fresh blood using a Vetscan (Vetscan HM5 Abaxis, Triolab).
Blood samples were collected from vena saphena for instant blood count analysis. For serum concentrations of AT130-2, liver enzyme and cytokine analysis, the mice were bled from the aorta under isoflurane anesthesia just prior to sacrifice.
Blood samples were collected from vena saphena for instant blood count analysis.

[8] = 70 mg BI-1206, subjects 501-001 and 503-002
[9] = ≥50 mg BI-1206 (FIG. 6: 70-100 mg)

Chain of mouse CD32B (FcγRIIB) (mouse) (P08101 30-207 limits assumed): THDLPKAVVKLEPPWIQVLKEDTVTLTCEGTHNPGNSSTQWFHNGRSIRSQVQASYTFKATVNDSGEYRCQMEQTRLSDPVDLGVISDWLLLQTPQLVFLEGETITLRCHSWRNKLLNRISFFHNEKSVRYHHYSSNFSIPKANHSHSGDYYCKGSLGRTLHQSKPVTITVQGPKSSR

AT-130-2 IgG2a (anti-mouse CD32B IgG2a clone AT130-2) (antibody)
receptor saturation [1]: 100%

BI-1206: anti-FcγRIIB antibody with light chain SEQ ID No: 1 and heavy chain SEQ ID No: 2
subjects with transient cytokine release ([2]; 70-100 mg BI-1206 (FIG. 6), serum/plasma available): 7 of 8
association of cytokine release with clinical symptoms ([2]; ≥70 mg BI-1206): not been associated with clinical symptoms
cytokines included in the release ([2]; ≥70 mg BI-1206): macrophage inflammatory protein (MIP)-1β, tumor necrosis factor (TNF)-α, interleukin (IL)-10, IL-8, IL-6, and IL-4
time of peak cytokine release ([2]; ≥70 mg BI-1206): immediately after infusion
time to normalization of cytokines ([2]; ≥70 mg BI-1206): ≤ 24 h
ALT/AST increase after premedication with two doses of dexamethasone [3, 8]: no ALT/AST increase
subjects with significant ALT and AST increase ([3]; ≥70 mg BI-1206): 3 out of 16
platelet decrease ([4]; 30 mg BI-1206, subject 201-003): never been seen
platelet decrease after premedication with two doses of dexamethasone [4, 8]: no/low platelet decrease
platelets [4, 9]: The decrease is transient
seriousness of thrombocytopenia [4, 9]: never serious or associated with bleeding; also recorded: not been serious nor associated with bleeding
time to resolution of most thrombocytopenia episodes [4, 9]: within a week
FcγRIIB receptor occupancy on peripheral B cells (FcgRIIb): ~100%
duration of receptor saturation (FcgRIIb): up to 48 hours
IRR's without two-dose premedication ([5]; 30 mg BI-1206, subject 201-003, 9 administrations): repeatedly experienced IRR's
grade of IRR's with two doses of dexamethasone ([5]; 30 mg BI-1206, subject 201-003, 10th administration): 1
IRRs after premedication with two doses of dexamethasone ([5]; 70 mg BI-1206, subjects 501-001 and 503-002, 12 mg / 4 mg evening before and 20 mg 30 minutes prior): None of the subjects suffered any IRRs; also recorded: did not suffer IRRs
grade of IRRs ([5]; 70 mg BI-1206 with rituximab, subjects 501-001 and 503-002, dexamethasone (20 mg) only 30 minutes prior to infusion): 2-3
severity and frequency of IRRs after implementation of two-dose corticosteroid premedication ([5]; 70-100 mg BI-1206, study 17-BI-1206-02): Significantly lower frequency and severity of IRRs; also recorded: statistically significant reduced severity and frequency of IRRs
infusion related reactions (IRRs) during BI-1206 infusions ([5]; i.v., human subjects): frequently associated with IRRs; also recorded: Frequent
peripheral B lymphocytes (peripheral B lymphocytes): transient depletion
time to recovery of peripheral B lymphocytes (peripheral B lymphocytes): approximately 7 days

C[C@H]1C[C@H]2[C@@H]3CCC4=CC(=O)C=C[C@]4(C)[C@@]3(F)[C@@H](O)C[C@]2(C)[C@@]1(O)C(=O)CO [betamethasone]
effect of single premedication on macroscopic symptoms (IRRs) (wildtype C57/BL6 mice [6]; 40 mg/kg, 1 hour only, 10 mg/kg AT-130-2 IgG2a i.v.): did not inhibited
grade of macroscopic symptoms after single premedication (wildtype C57/BL6 mice [6]; 40 mg/kg, 24 hours only, 10 mg/kg AT-130-2 IgG2a i.v.): 1
effect of single premedication on platelet decrease (wildtype C57/BL6 mice [7]): did not inhibited

CCCCCCCCCCCCCCCCCCNC(=O)OCC(COP(=O)([O-])OCC[n+]1ccsc1)OC (stereo not drawn) [anti-PAF]
inhibition of IRRs by other pre-medications (wildtype C57/BL6 mice [6]; i.p. 1h prior to i.v. AT-130-2 IgG2a bulk dose 200 ug/mouse): None of these pre-medications could inhibit IRRs; also recorded: none of the tested substances (anti-PAF, anti-IL-6, anti-histamine and a leukotrien-antagonist) could prevent the IRRs
